The record followed here is patent US20030233681, “ICE1, a regulator of cold induced transcriptome and freezing tolerance in plants” (Arizona Bd of Regents/Behalf of Univ. of Arizona, published 2003).

Data set [1] concerns the target T1, ICE1 (Arabidopsis thaliana, UniProt Q9LSE2 SEQ:1-494).
T1 sequence: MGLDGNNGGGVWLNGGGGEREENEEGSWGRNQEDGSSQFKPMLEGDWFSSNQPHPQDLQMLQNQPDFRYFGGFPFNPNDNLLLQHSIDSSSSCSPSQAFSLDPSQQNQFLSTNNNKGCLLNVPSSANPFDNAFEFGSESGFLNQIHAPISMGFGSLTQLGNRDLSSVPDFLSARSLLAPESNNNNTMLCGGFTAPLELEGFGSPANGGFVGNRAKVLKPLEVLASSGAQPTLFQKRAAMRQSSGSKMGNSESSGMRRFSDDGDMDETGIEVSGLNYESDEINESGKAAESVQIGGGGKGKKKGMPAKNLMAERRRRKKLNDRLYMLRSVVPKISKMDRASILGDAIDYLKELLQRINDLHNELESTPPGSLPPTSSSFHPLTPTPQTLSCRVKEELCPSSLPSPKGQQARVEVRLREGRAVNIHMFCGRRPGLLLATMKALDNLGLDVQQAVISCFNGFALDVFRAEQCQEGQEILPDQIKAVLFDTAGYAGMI
Description: EMSA; one major complex; strongest of the sites by competition; poly(dI-dC), room temperature 20 min. As to conditions: tags: His tag N-terminal (pET14b, E. coli BL21 DE3); label: 32P. The method, then: (§1) The wild type and mutant ICE1 cDNAs were amplified by RT-PCR and inserted into NdeI and BamHI sites in the expression vector pET14b (Novagen). Wild-type and mutant His-ICE1 fusion proteins were prepared from E. coli cells (BL21 DE3) according to the instruction manual of His-Bind Buffer Kit (Novagen). The electrophoresis mobility shift assay (EMSA) was carried out as described (Hao et al. 1998). The following double-stranded oligonucleotides listed in FIG. 6A (MYC-1, MYC-2, MYC-3, MYC-4 and MYC-5) were used as probes and competitors in EMSAs. Nucleotide sequences P1 (−949 to −930) and P2 (−909 to −890) were also used as competitors. P1 contains a putative MYB-recognition site. […] DNA probes were end-labeled with [γ-³²P]dCTP using the Klenow fragment and purified through a Sephadex G-50 column. The labeled probes (ca 0.02 pmol) were incubated for 20 min at room temperature with 2.3 μg of purified His-ICE1 fusion protein in 1×binding buffer (Hao et a.1998) supplemented with 20 pmol poly(dI-dC). The resulting DNA-protein complexes were resolved by electrophoresis on a 6% polyacrylamide gel in 0.5×TBE buffer and visualized by autoradiography. For competition experiments, unlabeled competitors were incubated with the His-ICE1 fusion protein on ice for 30 min prior to the addition of labeled probes. […]
For orientation: Mobility shift assays separate free from complexed probe on a gel.

In data set [2] the target is T2, ice1 (R236H) (Arabidopsis thaliana, UniProt Q9LSE2 SEQ:1-494, R236H).
T2 sequence: T1 sequence with R236H
Description: EMSA; R236H mutant still binds. To be noted: tags: His tag N-terminal (pET14b, E. coli BL21 DE3); label: 32P. The method, then:
as §1

The target in data set [3] is T1, ICE1. The data set can be described thus: EMSA; several complexes; weaker competitor than MYC-2. As to conditions: tags: His tag N-terminal (pET14b, E. coli BL21 DE3); label: 32P. The procedure: (§2) For competition experiments, unlabeled competitors were incubated with the His-ICE1 fusion protein on ice for 30 min prior to the addition of labeled probes.
(§3) ICE1 has a basic helix-loop-helix (bHLH) domain and its amino acid sequence in the basic region is highly conserved with other bHLH proteins (FIG. 4B), and therefore may recognize promoter elements similar to the DNA-binding sites for known bHLH proteins. These proteins recognize DNA with the consensus sequence CANNTG (Meshi and Iwabuchi 1995). In the promoter region of CBF3, there are five potential MYC-recognition elements within a 1 kb region upstream of the transcription initiation site (Shinwari et al. 1998). These possible MYC-recognition sites, designated MYC-1 through MYC-5, fall into four groups because MYC-3 and MYC-5 share the same consensus sequence, CATTTG (FIG. 6A). Thus, MYC-3 was used to represent both MYC-3 and MYC-5. To determine whether ICE1 binds to these MYC-recognition sites in the CBF3 promoter, we expressed and purified His-ICE1 fusion protein from E. coli. Four DNA fragments encompassing each possible MYC-recognition site were used for interaction with His-ICE1 in an electrophoresis mobility shift assay (EMSA).
(§4) The MYC-2 fragment formed one major complex with ICE1, while the other DNA fragments formed several complexes with ICE1. […]

Data set [4] concerns the target T1, ICE1. Description: EMSA; several complexes; weaker competitor than MYC-2; also represents MYC-5. To be noted: tags: His tag N-terminal (pET14b, E. coli BL21 DE3); label: 32P. The procedure:
as §2, §3, §4

In data set [5] the target is T1, ICE1. Description: competition; unlabeled non-related competitor does not compete; 50-250 fold excess. To be noted: tags: His tag N-terminal (pET14b, E. coli BL21 DE3). The procedure:
as §1

Data set [6] has as its target T1, ICE1. The data set can be described thus: competition; unlabeled competitor with putative MYB site does not compete; 50-250 fold excess. To be noted: tags: His tag N-terminal (pET14b, E. coli BL21 DE3). The procedure: as §1

Numbering of substitutions follows the chain as printed.

B1: MYC-2 (dsDNA)
DNA 1: CTCTGGACACATGGCAGATC
DNA 2: GATCTGCCATGTGTCCAGAG
With B1, the binding result in data set [1] and in data set [2] was “binds” in each case.

B2: MYC-1 (dsDNA)
DNA 1: CATTTTACAATTGCTTCGCT
DNA 2: AGCGAAGCAATTGTAAAATG
For the molecule B2, in data set [3], the binding result is reported as “binds”.

B3: MYC-4 (dsDNA)
DNA 1: ACAATTACAACTGCATGCTT
DNA 2: AAGCATGCAGTTGTAATTGT
Regarding B3, in data set [3], the binding result is listed as “binds”.

B4: MYC-3 (dsDNA)
DNA 1: AATGTTACATTTGATCATTC
DNA 2: GAATGATCAAATGTAACATT
For the molecule B4, the binding result in data set [4] is on record as “binds”.

B5: P2 (-909 to -890) (dsDNA)
DNA 1: GACTCGTTTCGCGATCCGAT
DNA 2: ATCGGATCGCGAAACGAGTC
On to B5, for which the binding result in data set [5] is on record as “no binding”.

B6: P1 (-949 to -930) (dsDNA)
DNA 1: ATATAATTAACTACTTTTAT
DNA 2: ATAAAAGTAGTTAATTATAT
Regarding B6, the binding result in data set [6] is recorded as “no binding”.
